Results on 1 molecule are retold here after US7968091 (GENERAL HOSPITAL, dated 2011).

In this assay the target is T1, human BMP-2 ligand (carrier-free, R & D Systems), used 125I-labeled and as cold competitor (human, UniProt P12643 283-396, iodinated with [125I] by the modified chloramine-T method (labeled form)).
T1 construct: Bought recombinant ligand
The experiment in a line: DSS chemical crosslinking with 125I-BMP-2, Protein A pull-down, SDS-PAGE, autoradiography. As for the experimental part: Ligand iodination and crosslinking. […] This mixture was incubated in the absence or presence of […] disuccinimidyl suberate (DSS, Sigma, St. Louis, Mo.) followed by incubated with Protein A Sepharose beads (Amersham) as previously described (J. L. Babitt et al., J. Biol. Chem., 2005, 280: 29820-29827). Beads were washed with phosphate buffered saline (PBS) and protein eluted by non-reducing Laemmli sample buffer (Bio-Rad). Eluted protein was separated by SDS-PAGE and analyzed by autoradiography.

T1 sequence (P12643 283-396 limits assumed): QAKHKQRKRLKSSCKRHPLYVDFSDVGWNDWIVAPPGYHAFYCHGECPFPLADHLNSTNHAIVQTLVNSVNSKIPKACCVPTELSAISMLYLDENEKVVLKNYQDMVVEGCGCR

B1: ALK5.Fc (a TGF-β type I receptor, R & D Systems) (Fc fusion, UniProt P36897 34-125, looked up)
chain: LQCFCHLCTKDNFTCVTDGLCFVSVTETTDKVIHNSMCIAEIDLIPRDRPFVCAPSSKTGSVTTTYCCNQDHCNKIELPTTVKSSPGLGPVE
notes: Bought fusion protein, negative control; not shown: Fc part of the bought fusion protein; not described
In the case of B1, the binding result is “no binding (tested: 60 ng ALK5.Fc)”.
